# ± gives the standard deviation of the averaged measurements.
# Legend:
# [1] = test system: Saccharomyces cerevisiae; assay: protein stability index of tFT-peptide fusion in wild type (PSI (0-1 scale)); higher = more stable (slower turnover); details: genetic background: wild type
# Method: (§1)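 MPS profiling in S. cerevisiae of two library types built from selected 12-aa C-degron peptides (IN1, IN2, LN1, LN3, VN2, R1-R5, W1-W3, Atg1 and Rpa12 C-termini): saturation mutagenesis libraries and C-terminal +1 capping libraries (13 aa). Each peptide is fused to the C-terminus of a sfGFP-mCherry timer, after a GGGS linker. Cells are FACS-sorted into 8 mCherry/sfGFP bins and sequenced. PSI runs from 0 (unstable) to 1 (stable), measured once in wild type and in the das1Δ or doa10Δ background.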
# [2] = test system: Saccharomyces cerevisiae; assay: protein stability index of tFT-peptide fusion in deletion strain of DAS1 (PSI (0-1 scale)); higher = more stable (slower turnover)
# Method: as §1
# [3] = test system: Saccharomyces cerevisiae; assay: protein stability index of tFT-peptide fusion (C-terminal peptide) (PSI (0-1 scale)); higher = more stable (slower turnover); details: temperature: 30 C
# Method: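 MPS profiling in S. cerevisiae of the yeast C-terminome library: the last 12 aa of each annotated ORF are fused to the C-terminus of a sfGFP-mCherry timer, after a GGGS linker. Cells are FACS-sorted into 8 mCherry/sfGFP bins and deep-sequenced. PSI runs from 0 (unstable) to 1 (stable); wild type and das1Δ backgrounds, two technical replicates each.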
# [4] = genetic background: das1 deletion
# 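Wherever protein stability index of tFT-peptide fusion in deletion strain of DAS1 is given: PSI is a weighted mean of each variant's read distribution over the sorted stability bins, computed only for variants having over 10 reads in total.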
# 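Wherever protein stability index of tFT-peptide fusion in wild type is given: PSI derived as read-weighted mean over the 8 sorting bins, only variants exceeding 10 total reads kept, mCherry placed adjacent to the peptide and sfGFP distal.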
Sequence,protein stability index [1],protein stability index [2],"protein stability index [3, 4]",protein stability index ([3]; genetic background: wild type)
ARHRVGLWRGAS,0.603,0.689,,
ARWCVGLWRGAS,0.357,0.7,,
ARWFVGLWRGAS,0.345,0.699,,
ARWKVGLWRGAS,0.32,0.673,,
ARWRKGLWRGAS,0.657,0.697,,
ARWRRGLWRGAS,0.55,0.692,,
ARWRTGLWRGAS,0.474,0.679,,
ARWRVDLWRGAS,0.214,0.728,,
ARWRVGLFRGAS,0.655,0.665,,
ARWRVGLMRGAS,0.596,0.677,,
ARWRVGLRRGAS,0.672,0.683,,
ARWRVGLWRCAS,0.114,0.674,,
ARWRVGLWRGAF,0.603,0.682,,
ARWRVGLWRGAM,0.531,0.702,,
ARWRVGLWRGAW,0.68,0.686,,
ARWRVGLWRGLS,0.119,0.661,,
ARWRVGLWRGRS,0.66,0.679,,
ARWRVGLWRHAS,0.0927,0.688,,
ARWRVGLWRNAS,0.11,0.693,,
ARWRVGLWRYAS,0.0836,0.686,,
ARWRVMLWRGAS,0.305,0.705,,
ARWRVYLWRGAS,0.378,0.618,,
AVWRVGLWRGAS,0.409,0.678,,
CDKRNHLIKLLN,0.153,0.589,,

Sequence,protein stability index [1],protein stability index [2],"protein stability index [3, 4]",protein stability index ([3]; genetic background: wild type)
CPSCGYKFRTNN,0.361,0.754,,
CTECGYKFRTNN,0.357,0.678,,
CTPCGYKFRTNN,0.248,0.686,,
CTSCFYKFRTNN,0.173,0.677,,
CTSCGDKFRTNN,0.48,0.696,,
CTSCGKKFRTNN,0.5,0.688,,
CTSCGYKERTNN,0.632,0.699,,
CTSCGYKFDTNN,0.667,0.705,,
CTSCGYKFETNN,0.656,0.707,,
CTSCGYKFKTNN,0.642,0.725,,
CTSCGYKFMTNN,0.477,0.676,,
CTSCGYKFRENN,0.691,0.693,,
CTSCGYKFRMNN,0.412,0.686,,
CTSCGYKFRTNG,0.399,0.685,,
CTSCGYKFRTNNS,0.683,0.7,,
CTSCGYKFRTNNW,0.705,0.716,,
CTSCGYKFRTNQ,0.498,0.691,,
CTSCGYKFRTNW,0.695,0.705,,
CTSCGYKMRTNN,0.227,0.669,,
CTSCGYKSRTNN,0.673,0.703,,
CTSCGYNFRTNN,0.642,0.704,,
CTSCSYKFRTNN,0.267,0.686,,
CTSFGYKFRTNN,0.127,0.678,,
CTSKGYKFRTNN,0.269,0.667,,

Sequence,protein stability index [1],protein stability index [2],"protein stability index [3, 4]",protein stability index ([3]; genetic background: wild type)
CTSMGYKFRTNN,0.148,0.689,,
CTSTGYKFRTNN,0.214,0.681,,
DDKRNHLIKLLN,0.146,0.595,,
DRGAVGGWRLVG,0.176,0.655,,
DSMRWTFRYWVN,0.0763,0.582,,
DVVYLSCVACIN,0.0164,0.0312,,
EDKRNHLIKLLN,0.078,0.599,,
EKILRQKMNHQN,0.137,0.681,,
FSCRWTFRYWVN,0.065,0.51,,
FSMRWDFRYWVN,0.0502,0.585,,
VSDSEQSDTKGI [UAF30 C-terminal 12 aa],,,0.6733 ± 0.0011,0.676 ± 0.016
VSLKKGKLKAHC [YAP7 C-terminal 12 aa],,,0.673 ± 0.016,0.692 ± 0.019
VTAGKAKFVLYN [SUN4 C-terminal 12 aa],,,0.665 ± 0.0087,0.445 ± 0.012
VTVLRNSQYFFS [RPO41 C-terminal 12 aa],,,0.741 ± 0.039,0.728 ± 0.018
VVQFLVNLVCHT [YGR114C C-terminal 12 aa],,,0.4879 ± 0.0042,0.487 ± 0.011
VWCSVKKRLLEK [TIM23 C-terminal 12 aa],,,0.724 ± 0.016,0.732 ± 0.037
WAKRAFDGQFVK [DAP2 C-terminal 12 aa],,,0.717 ± 0.0086,0.735 ± 0.017
WEAYLRRCGQQN [URA3 C-terminal 12 aa],,,0.697 ± 0.032,0.658 ± 0.018
WGIYEELVKRFM [HEM25 C-terminal 12 aa],,,0.7094 ± 0.0066,0.707 ± 0.013
WKEDADKNAGHK [OCH1 C-terminal 12 aa],,,0.706 ± 0.012,0.731 ± 0.0062
WKLRAKYGIRKD [MGR2 C-terminal 12 aa],,,0.6905 ± 0.0028,0.684 ± 0.02
WKLYQDYLSGKV [YER134C C-terminal 12 aa],,,0.695 ± 0.014,0.719 ± 0.08
WLDKHTTTEAKP [YJU3 C-terminal 12 aa],,,0.7087 ± 0.0036,0.705 ± 0.0089
WQDFVPDEHISQ [VPS501 C-terminal 12 aa],,,0.736 ± 0.0053,0.792 ± 0.028

Sequence,protein stability index [1],protein stability index [2],"protein stability index [3, 4]",protein stability index ([3]; genetic background: wild type)
WSTFYYLCRKRE [CRG1 C-terminal 12 aa],,,0.693 ± 0.014,0.701 ± 0.077
WYLQSVNLRDGV [HOL1 C-terminal 12 aa],,,0.6852 ± 0.005,0.688 ± 0.035
WYSRKNINSRFE [MTR10 C-terminal 12 aa],,,0.714 ± 0.059,0.712 ± 0.046
YAKFGDNINLER [GIM3 C-terminal 12 aa],,,0.70175 ± 0.00021,0.698 ± 0.031
YAWTRGLTNPIC [FEX1 C-terminal 12 aa],,,0.69727 ± 0.00064,0.69 ± 0.0087
YELDGPYMSKRI [ELP3 C-terminal 12 aa],,,0.6788 ± 0.0018,0.704 ± 0.062
YGANSQQTFEHT [YFR034W-A C-terminal 12 aa],,,0.706 ± 0.011,0.728 ± 0.026
YIARNQKKGMSI [ECT1 C-terminal 12 aa],,,0.685 ± 0.011,0.67 ± 0.015
YIKEAQSACNDV [COS12 C-terminal 12 aa],,,0.692 ± 0.018,0.664 ± 0.03
YKNLRKTSSSHL [NPY1 C-terminal 12 aa],,,0.843 ± 0.028,0.84 ± 0.031
YKTKYIWERLGK [SPC24 C-terminal 12 aa],,,0.69 ± 0.012,0.694 ± 0.029
YKTQTGNFQVRL [APM3 C-terminal 12 aa],,,0.706 ± 0.0095,0.722 ± 0.0093
YLERRVRTLKKD [MRPL32 C-terminal 12 aa],,,0.713 ± 0.032,0.68 ± 0.013
YLVHNNADEKSN [CUZ1 C-terminal 12 aa],,,0.704 ± 0.034,0.695 ± 0.05
YNDHRLPKRAKK [HSF1 C-terminal 12 aa],,,0.6948 ± 0.0036,0.7354 ± 0.0051
YNKLESNLQIFM [ABZ1 C-terminal 12 aa],,,0.697 ± 0.017,0.744 ± 0.0097
YPFTISYISPPY [YPR169W-A C-terminal 12 aa],,,0.71 ± 0.067,0.702 ± 0.025
YPQQLLGYTDNG [YKL115C C-terminal 12 aa],,,0.628 ± 0.013,0.597 ± 0.0073
YSFNKLTMTILY [YER137W-A C-terminal 12 aa],,,0.6999 ± 0.0014,0.633 ± 0.026
YSIEVVPHGLIA [GLO1 C-terminal 12 aa],,,0.607 ± 0.0097,0.5946 ± 0.0015
YTSKSFSPASSE [YMR181C C-terminal 12 aa],,,0.704 ± 0.031,0.668 ± 0.022
YVFIVNHAAEQT [NUP116 C-terminal 12 aa],,,0.677 ± 0.024,0.659 ± 0.009
YVKQQHGQSQND [EAF6 C-terminal 12 aa],,,0.695 ± 0.021,0.694 ± 0.022
